Data published in publication PMC2720833.

Molecular target: GST-Cullin5 (NTD), N-terminal domain of murine cullin5 (Met1-Leu385) with V341R and L345D (murine) (UniProt Q9D5V5)
Assay: SPR

GST-Cullin5 (NTD), N-terminal domain of murine cullin5 (Met1-Leu385) with V341R and L345D (murine), sequence (Q9D5V5 1-385 V341R/L345D): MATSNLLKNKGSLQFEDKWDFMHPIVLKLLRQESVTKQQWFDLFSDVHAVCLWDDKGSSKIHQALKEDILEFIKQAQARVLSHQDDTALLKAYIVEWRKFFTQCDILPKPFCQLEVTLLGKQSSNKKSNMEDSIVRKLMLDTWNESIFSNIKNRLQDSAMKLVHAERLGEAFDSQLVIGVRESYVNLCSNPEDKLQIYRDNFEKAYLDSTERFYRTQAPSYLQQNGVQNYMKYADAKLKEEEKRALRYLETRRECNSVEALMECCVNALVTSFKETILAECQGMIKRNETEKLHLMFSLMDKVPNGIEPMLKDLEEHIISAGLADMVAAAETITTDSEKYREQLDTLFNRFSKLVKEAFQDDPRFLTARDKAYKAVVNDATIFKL

In the case of “SOCS3 box/elonginBC ternary complex (from UniProt Q15370 1-118; P83940 17-112)”, the KD by Biacore relative to KD by ITC (fold) is reported as 4 fold and the half-life of the complex is reported as 10 s.
